Data set [1] concerns BKS.Cg-+Lepr^db/+Lepr^db/Jcl mouse. Description: Oral sugar tolerance test. It counts as in vivo. The following applies: for Hypoglycemic ratio: mean value. As for the experimental part: 8-week-old male BKS.Cg-+Lepr^db/+Lepr^db/Jcl mouse (manufactured by CLEA Japan, Inc.) was subjected to fasting overnight. Thereafter, the HA-GLP-1 mutant conjugate solution obtained in Example 15-2 that had been diluted with solvent Z (peptide amount: 1.5 μg/kg, 15 μg/kg, or 150 μg/kg) or solvent Z was intravenously administered to the above […]. 1 minute after the intravenous administration, a 50% glucose solution (Otsuka Pharmaceutical Co., Ltd.) was orally administered at a dosage of 3 g/kg. […]
The blood was collected from the tail portion before administration of glucose (value at hour 0), and 0.5, 1, 2, and 4 hours after the administration of glucose. Thereafter, the blood glucose level was measured by the enzyme method (hexokinase method, Autosera S GLU (Daiichi Pure Chemical Co., Ltd.; equipment name: BioMajesty JCA-BM1250 (JEOL Ltd.)).
The blood glucose level was calculated by the following hypoglycemic ratio: […]
The mean value and standard deviation of each group were calculated from the calculated hypoglycemic ratio.

Data set [2] is described as follows: Residence time in blood of HA-GLP-1 mutant conjugate (Test Example 5). It counts as in vivo, rat. As for the experimental part: The HA-GLP-1 mutant conjugate solution obtained in Example 15-2 was diluted with PBS that contained 0.05% Tween 80 (pH 7.4; hereinafter also referred to as “solvent Z”), and the thus diluted solution was then administered at a dosage of 50 μg/kg into the vein of a rat as a single dose. Thereafter, 1, 4, 8, 24, 48, 72, 96, and 168 hours after the administration, the blood was collected (heparin treatment). The blood was then centrifuged, so as to obtain plasma. This plasma sample was cryopreserved at −20° C. or less until measurement was carried out.
Thereafter, they were analyzed using a microplate reader. Conditions for measurement are described below:
Microplate reader: SPECTRA MAX GEMINI (manufactured by Molecular Devices)
Detection: Fluorescence (EX: 355 nm, EM: 460 nm)
The HA-GLP-1 mutant conjugate solution obtained in Example 15-2 was diluted with solvent Z and Assay Buffer included with kit W, so as to prepare standard solutions having concentrations of 12.8, 6.4, 3.2, 1.6, 0.8, 0.4, 0.2, 0.1 μg/ml and 0 μg/ml. Thereafter, 5 μl of normal rat plasma was added to this standard solution, so as to prepare a sample used for calibration curve.
Assay Buffer included with kit W was added to the HA-GLP-1 mutant conjugate-administered rat plasma sample, so as to prepare a measurement sample.
The concentration of the HA-GLP-1 mutant conjugate in plasma was calculated based on the calibration curve obtained from the fluorescence intensity of each standard sample using analysis software SOFTmax PRO (manufactured by Molecular Devices).
With regard to data of a change in the concentration in blood of the administered HA-GLP-1 mutant conjugate, pharmacokinetic parameters were calculated using WinNonlin Ver 4.0.1 (manufactured by Pharsight). With regard to a change in the concentration in plasma of each individual, model-independent analysis was carried out, so as to calculate the mean residence time in blood (MRT). The half-life (t1/2) was calculated using the data of the final 3 measurable points of each individual.

[3] abbreviates: intravenously administered to a rat.
Where [4] appears, read: rat vein, 50 μg/kg single dose, mean value.

Where no end group is shown, it is not given here.

On to “HA-GLP-1 mutant conjugate: GLP-1 mutant (Gly at position 8, Cys at position 37) bound to HA-AM-MI/SUC; 3.7 GLP-1 mutant/HA (mol/mol) (HGEGTFTSDVSSYLEGQAAKEFIAWLVKGRC; also: bound to modified hyaluronic acid HA-AM-MI/SUC, 3.7 peptide per HA, attachment site not given here; UniProt P01275 98-128, looked up, variant A8G G37C)”, for which the “hypoglycemic action compared with GLP-1 (Human, 7-37)” value in data set [1] (oral sugar tolerance test) is recorded as “significantly increased”. Also, in data set [1] (peptide amount 1.5 μg/kg intravenous 1 minute before oral glucose 3 g/kg), the Hypoglycemic ratio turned out to be 3.0%. Moreover, in data set [1] (peptide amount 15 μg/kg intravenous 1 minute before oral glucose 3 g/kg), the Hypoglycemic ratio was found to be 60.1%. The Hypoglycemic ratio in data set [1] (peptide amount 150 μg/kg intravenous 1 minute before oral glucose 3 g/kg) was 120.3%. In data set [2] (setting [3]), this substance registered an MRT of 30.2 h and a half-life of 23.6 h. In data set [2] (setting [4]), the Distribution volume is reported as 53.4 mL/kg, the “Mean residence time in blood” value was 30.2 h, the Total clearance is 1.8 mL/h/kg and the half-life amounted to 23.6 h.
